# B1: Phage-645 (peptide)
# peptide: YCDGHLPVYMAKCL
# notes: tested as crude phage supernatant
# B2: Phage-646 (peptide)
# peptide: YCMGHSEEYMQKCL
# notes: as for B1
# B3: Phage-647 (peptide)
# peptide: YCDGHLPEYMHKCL
# notes: as for B1
# B4: Phage-648 (peptide)
# peptide: YCDGHLEEYMAKCL
# notes: as for B1
# B5: Phage-649 (peptide)
# peptide: YCDGHMPEYMLKCL
# notes: as for B1
# B6: Phage-650 (peptide)
# peptide: YCSGHAPIYMAKCL
# notes: as for B1
# B7: Phage-651 (peptide)
# peptide: YCAGHTQEYMSKCL
# notes: as for B1
# B8: Phage-652 (peptide)
# peptide: YCEGHSPQYMQKCL
# notes: as for B1
# B9: Phage-653 (peptide)
# peptide: YCDGHVPQYMAKCL
# notes: as for B1
# B10: Phage-654 (peptide)
# peptide: YCDGHSAEYMSKCL
# notes: as for B1
# B11: Phage-655 (peptide)
# peptide: YCQGHLPQYIAKCL
# notes: as for B1
# B12: Phage-656 (peptide)
# peptide: YCAGHLPQYMEKCM
# notes: as for B1
# B13: Phage-657 (peptide, not shown: large carriers)
# peptide: YCAGHLPEHIGKCL
# notes: Clonal phage supernatant of the Peptide-87 library
# B14: Phage-658 (peptide, not shown: large carriers)
# peptide: YCEGHTAEYLQKCL
# notes: as for B13
# B15: Phage-659 (peptide, not shown: large carriers)
# peptide: YCAGHSPEYMGKCM
# notes: as for B13
# B16: Phage-660 (peptide, not shown: large carriers)
# peptide: YCSGHLPEYMEKCL
# notes: as for B13
# B17: Phage-661 (peptide, not shown: large carriers)
# peptide: YCAGHLEIYMQKCL
# notes: as for B13
# B18: Phage-662 (peptide, not shown: large carriers)
# peptide: YCMGHLPQYMEKCL
# notes: as for B13
# B19: Phage-663 (peptide, not shown: large carriers)
# peptide: YCEGHSAEYMWKCL
# notes: as for B13
# B20: Phage-664 (peptide, not shown: large carriers)
# peptide: YCEGHAPEHMAKCL
# notes: as for B13
# B21: Phage-665 (peptide, not shown: large carriers)
# peptide: YCDGHAEQYMEKCL
# notes: as for B13
# B22: Phage-666 (peptide, not shown: large carriers)
# peptide: YCEGHSPEYMSHCF
# notes: as for B13
# B23: Phage-667 (peptide, not shown: large carriers)
# peptide: YCEGHSMQHMAKCL
# notes: as for B13
# B24: Phage-668 (peptide, not shown: large carriers)
# peptide: YCDGHAQEFMSKCL
# notes: as for B13
# B25: Phage-669 (peptide, not shown: large carriers)
# peptide: YCAGHLPEYIDKCL
# notes: as for B13
# B26: Phage-670 (peptide)
# peptide: YCEGHAPQYIQKCL
# notes: Clonal phage of the Peptide-87 library
# B27: Phage-671 (peptide)
# peptide: YCDGHELRYMAKCL
# notes: as for B26
# B28: Phage-672 (peptide)
# peptide: YCDGHLPAYMAKCL
# notes: as for B26
# B29: Phage-673 (peptide)
# peptide: YCEGHSDEYMLKCL
# notes: as for B26
# B30: Phage-674 (peptide)
# peptide: YCEGHAPEYMMKCI
# notes: as for B26
# B31: Phage-675 (peptide)
# peptide: YCEGHADIYMQKCL
# notes: as for B26
# B32: Phage-676 (peptide)
# peptide: YCEGHSAEYMNKCL
# notes: as for B26
# B33: Phage-677 (peptide)
# peptide: YCDGHAPQYMGKCL
# notes: as for B26
# B34: Phage-678 (peptide)
# peptide: YCEGHLPIYMDKCL
# notes: as for B26
# B35: Phage-679 (peptide)
# peptide: YCDGHAIEYMQKCL
# notes: as for B26
# B36: Phage-680 (peptide)
# peptide: YCAGHIEEYMWKCL
# notes: as for B26
# B37: Phage-681 (peptide)
# peptide: YCQGHMPEYMDKCL
# notes: as for B26
# B38: Phage-682 (peptide)
# peptide: YCDGHAPEYVMKCL
# notes: as for B26
# B39: Phage-683 (peptide)
# peptide: YCDGHVGEYMQKCL
# B40: Phage-684 (peptide)
# peptide: YCDGHSAQYMHKCL
# B41: Phage-685 (peptide)
# peptide: YCEGHAPEYMYKCL
# B42: Phage-686 (peptide)
# peptide: YCDGHLPEYQMKCL
# B43: Phage-687 (peptide)
# peptide: YCDGHASEYMMKCL
# B44: Phage-688 (peptide)
# peptide: YCDGHLIEYMEKCL
# Assays:
# [1] = molecular target: T1, Anti-CD28 Fab (SEQ ID NOs: 696, 697) (biotinylated (site not stated)); experiment: phage binding ELISA; Fab-coated wells pre-incubated with CD28 antigen as competitor, then clonal phage, anti-M13 HRP detection
# T1 sequence (VH, as listed by the source, chain 1 of 2): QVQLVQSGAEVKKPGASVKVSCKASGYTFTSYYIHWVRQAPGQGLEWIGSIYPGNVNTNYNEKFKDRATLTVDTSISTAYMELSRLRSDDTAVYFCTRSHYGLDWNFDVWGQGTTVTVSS
# T1 sequence (VL, as listed by the source, chain 2 of 2): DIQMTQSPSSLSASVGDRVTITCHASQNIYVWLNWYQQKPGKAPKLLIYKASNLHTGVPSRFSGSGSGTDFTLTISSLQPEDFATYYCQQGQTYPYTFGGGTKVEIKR
# [2] = molecular target: T1, Anti-CD28 Fab (SEQ ID NOs: 696, 697); experiment: phage binding ELISA; biotinylated anti-CD28 Fab on neutravidin plates, clonal phage supernatant, anti-M13 HRP detection
# Description: (§1) After panning, phage infected bacteria were plated out and colonies picked into 96 well blocks. Clonal phage was then amplified and separated from bacterial cells via centrifugation.
# (§2) Clonal phage were harvested as crude supematants and screened via standard ELISAs. […] Prior to the addition of clonal phage, wells were incubated with blocking buffer and CD28 antigen or blocking buffer alone. Without washing or aspirating, clonal phage supematants were then added to the wells and incubated for a short time. Wells were then washed followed by detection of bound phage using a horse radish conjugated anti-M13 antibody. Clonal phage of interest were then sent for sequence analysis.
# [3] = molecular target: T2, Anti-CD28 Fab (SEQ ID NOs: 696, 697); experiment: phage binding ELISA on anti-CD28 Fab plate pre-incubated with CD28 antigen as competitor; anti-M13 HRP detection
# T2 construct: Biotinylated and captured on neutravidin coated plates in the phage ELISA
# T2 sequence (VH, as listed by the source, chain 1 of 2): as the sequence (VH, as listed by the source, chain 1 of 2) above
# T2 sequence (VL, as listed by the source, chain 2 of 2): as the sequence (VL, as listed by the source, chain 2 of 2) above
# Description: as §1, §2
# [4] = molecular target: T2, Anti-CD28 Fab (SEQ ID NOs: 696, 697); experiment: phage binding ELISA; biotinylated anti-CD28 Fab on neutravidin plate, clonal phage supernatant, anti-M13 HRP detection
# Description: as §1, §2
# [5] = molecular target: T3, Anti-CD28 Fab (SEQ ID NOs: 696, 697); experiment: phage ELISA on plate-bound anti-CD28 Fab, wells pre-incubated with CD28 antigen as competitor
# T3 construct: Biotinylated and captured on neutravidin coated plates in the phage ELISA
# T3 sequence (VH, as listed by the source, chain 1 of 2): as the sequence (VH, as listed by the source, chain 1 of 2) above
# T3 sequence (VL, as listed by the source, chain 2 of 2): as the sequence (VL, as listed by the source, chain 2 of 2) above
# Description: as §1, §2
# [6] = molecular target: T3, Anti-CD28 Fab (SEQ ID NOs: 696, 697); experiment: phage ELISA; biotinylated anti-CD28 Fab on neutravidin plate, clonal phage supernatant, anti-M13 HRP detection;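 note: crude supernatants of single phage clones picked after panning were screened for binding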
# [7] = molecular target: T4, Anti-CD28 Fab (SEQ ID NOs: 696, 697); experiment: phage binding ELISA; biotinylated anti-CD28 Fab on neutravidin plate, bound phage detected with anti-M13-HRP
# T4 construct: In the phage ELISA the Fab was biotinylated and captured on neutravidin coated plates
# T4 sequence (VH, as listed by the source, chain 1 of 2): as the sequence (VH, as listed by the source, chain 1 of 2) above
# T4 sequence (VL, as listed by the source, chain 2 of 2): as the sequence (VL, as listed by the source, chain 2 of 2) above
# Description: as §1, §2
# [8] = molecular target: T4, Anti-CD28 Fab (SEQ ID NOs: 696, 697); experiment: phage binding ELISA on captured anti-CD28 Fab; competitor: CD28 antigen pre-incubated in the wells
# Description: as §1, §2
binder,measurement,setting,value
B1,Anti-CD28 Fab signal in the presence of CD28 (phage binding ELISA),[1],0.09
same,Anti-CD28 Fab signal (phage binding ELISA),[2],2.11
B2,Anti-CD28 Fab signal in the presence of CD28 (phage binding ELISA),[1],0.07
same,Anti-CD28 Fab signal (phage binding ELISA),[2],2.11
B3,Anti-CD28 Fab signal in the presence of CD28 (phage binding ELISA),[1],0.11
same,Anti-CD28 Fab signal (phage binding ELISA),[2],2.11
B4,Anti-CD28 Fab signal in the presence of CD28 (phage binding ELISA),[1],0.09
same,Anti-CD28 Fab signal (phage binding ELISA),[2],2.11
B5,Anti-CD28 Fab signal in the presence of CD28 (phage binding ELISA),[1],0.09
same,Anti-CD28 Fab signal (phage binding ELISA),[2],2.11
B6,Anti-CD28 Fab signal in the presence of CD28 (phage binding ELISA),[1],0.07
same,Anti-CD28 Fab signal (phage binding ELISA),[2],2.1
B7,Anti-CD28 Fab signal in the presence of CD28 (phage binding ELISA),[1],0.05
same,Anti-CD28 Fab signal (phage binding ELISA),[2],2.1
B8,Anti-CD28 Fab signal in the presence of CD28 (phage binding ELISA),[1],0.06
same,Anti-CD28 Fab signal (phage binding ELISA),[2],2.1
B9,Anti-CD28 Fab signal in the presence of CD28 (phage binding ELISA),[1],0.07
same,Anti-CD28 Fab signal (phage binding ELISA),[2],2.1
B10,Anti-CD28 Fab signal in the presence of CD28 (phage binding ELISA),[1],0.06
same,Anti-CD28 Fab signal (phage binding ELISA),[2],2.1
B11,Anti-CD28 Fab signal in the presence of CD28 (phage binding ELISA),[1],0.08
same,Anti-CD28 Fab signal (phage binding ELISA),[2],2.09
B12,Anti-CD28 Fab signal in the presence of CD28 (phage binding ELISA),[1],0.08
same,Anti-CD28 Fab signal (phage binding ELISA),[2],2.09
B13,Anti-CD28 Fab signal in the presence of CD28 (phage binding ELISA),[3],0.07
same,Anti-CD28 Fab signal (phage binding ELISA),[4],2.09
B14,Anti-CD28 Fab signal in the presence of CD28 (phage binding ELISA),[3],0.1
same,Anti-CD28 Fab signal (phage binding ELISA),[4],2.09
B15,Anti-CD28 Fab signal in the presence of CD28 (phage binding ELISA),[3],0.06
same,Anti-CD28 Fab signal (phage binding ELISA),[4],2.09
B16,Anti-CD28 Fab signal in the presence of CD28 (phage binding ELISA),[3],0.09
same,Anti-CD28 Fab signal (phage binding ELISA),[4],2.09
B17,Anti-CD28 Fab signal in the presence of CD28 (phage binding ELISA),[3],0.08
same,Anti-CD28 Fab signal (phage binding ELISA),[4],2.09
B18,Anti-CD28 Fab signal in the presence of CD28 (phage binding ELISA),[3],0.08
same,Anti-CD28 Fab signal (phage binding ELISA),[4],2.08
B19,Anti-CD28 Fab signal in the presence of CD28 (phage binding ELISA),[3],0.09
same,Anti-CD28 Fab signal (phage binding ELISA),[4],2.08
B20,Anti-CD28 Fab signal in the presence of CD28 (phage binding ELISA),[3],0.1
same,Anti-CD28 Fab signal (phage binding ELISA),[4],2.08
B21,Anti-CD28 Fab signal in the presence of CD28 (phage binding ELISA),[3],0.07
same,Anti-CD28 Fab signal (phage binding ELISA),[4],2.08
B22,Anti-CD28 Fab signal in the presence of CD28 (phage binding ELISA),[3],0.09
same,Anti-CD28 Fab signal (phage binding ELISA),[4],2.08
B23,Anti-CD28 Fab signal in the presence of CD28 (phage binding ELISA),[3],0.08
same,Anti-CD28 Fab signal (phage binding ELISA),[4],2.07
B24,Anti-CD28 Fab signal in the presence of CD28 (phage binding ELISA),[3],0.12
same,Anti-CD28 Fab signal (phage binding ELISA),[4],2.07
B25,Anti-CD28 Fab signal in the presence of CD28 (phage binding ELISA),[3],0.08
same,Anti-CD28 Fab signal (phage binding ELISA),[4],2.07
B26,Anti-CD28 Fab signal in the presence of CD28 (phage binding ELISA),[5],0.07
same,Anti-CD28 Fab signal (phage binding ELISA),[6],2.07
B27,Anti-CD28 Fab signal in the presence of CD28 (phage binding ELISA),[5],0.07
same,Anti-CD28 Fab signal (phage binding ELISA),[6],2.07
B28,Anti-CD28 Fab signal in the presence of CD28 (phage binding ELISA),[5],0.12
same,Anti-CD28 Fab signal (phage binding ELISA),[6],2.06
B29,Anti-CD28 Fab signal in the presence of CD28 (phage binding ELISA),[5],0.07
same,Anti-CD28 Fab signal (phage binding ELISA),[6],2.06
B30,Anti-CD28 Fab signal in the presence of CD28 (phage binding ELISA),[5],0.06
same,Anti-CD28 Fab signal (phage binding ELISA),[6],2.06
B31,Anti-CD28 Fab signal in the presence of CD28 (phage binding ELISA),[5],0.07
same,Anti-CD28 Fab signal (phage binding ELISA),[6],2.06
B32,Anti-CD28 Fab signal in the presence of CD28 (phage binding ELISA),[5],0.07
same,Anti-CD28 Fab signal (phage binding ELISA),[6],2.06
B33,Anti-CD28 Fab signal in the presence of CD28 (phage binding ELISA),[5],0.08
same,Anti-CD28 Fab signal (phage binding ELISA),[6],2.06
B34,Anti-CD28 Fab signal in the presence of CD28 (phage binding ELISA),[5],0.08
same,Anti-CD28 Fab signal (phage binding ELISA),[6],2.06
B35,Anti-CD28 Fab signal in the presence of CD28 (phage binding ELISA),[5],0.07
same,Anti-CD28 Fab signal (phage binding ELISA),[6],2.05
B36,Anti-CD28 Fab signal in the presence of CD28 (phage binding ELISA),[5],0.06
same,Anti-CD28 Fab signal (phage binding ELISA),[6],2.05
B37,Anti-CD28 Fab signal in the presence of CD28 (phage binding ELISA),[5],0.07
same,Anti-CD28 Fab signal (phage binding ELISA),[6],2.05
B38,Anti-CD28 Fab signal in the presence of CD28 (phage binding ELISA),[5],0.1
same,Anti-CD28 Fab signal (phage binding ELISA),[6],2.05
B39,Anti-CD28 Fab signal (phage binding ELISA),[7],2.05
same,Anti-CD28 Fab signal in the presence of CD28 (phage binding ELISA),[8],0.08
B40,Anti-CD28 Fab signal (phage binding ELISA),[7],2.05
same,Anti-CD28 Fab signal in the presence of CD28 (phage binding ELISA),[8],0.06
B41,Anti-CD28 Fab signal (phage binding ELISA),[7],2.05
same,Anti-CD28 Fab signal in the presence of CD28 (phage binding ELISA),[8],0.07
B42,Anti-CD28 Fab signal (phage binding ELISA),[7],2.05
same,Anti-CD28 Fab signal in the presence of CD28 (phage binding ELISA),[8],0.08
B43,Anti-CD28 Fab signal (phage binding ELISA),[7],2.05
same,Anti-CD28 Fab signal in the presence of CD28 (phage binding ELISA),[8],0.06
B44,Anti-CD28 Fab signal (phage binding ELISA),[7],2.04
same,Anti-CD28 Fab signal in the presence of CD28 (phage binding ELISA),[8],0.06

# Source: patent US20260242478A1 (published 2026)
